The values that follow come from publication PMC1361615.

The data set deals with His-tagged M.RsrI (UniProt P14751 1-319). Kind of data set: size-exclusion chromatography.
Sequence of His-tagged M.RsrI (P14751 whole entry): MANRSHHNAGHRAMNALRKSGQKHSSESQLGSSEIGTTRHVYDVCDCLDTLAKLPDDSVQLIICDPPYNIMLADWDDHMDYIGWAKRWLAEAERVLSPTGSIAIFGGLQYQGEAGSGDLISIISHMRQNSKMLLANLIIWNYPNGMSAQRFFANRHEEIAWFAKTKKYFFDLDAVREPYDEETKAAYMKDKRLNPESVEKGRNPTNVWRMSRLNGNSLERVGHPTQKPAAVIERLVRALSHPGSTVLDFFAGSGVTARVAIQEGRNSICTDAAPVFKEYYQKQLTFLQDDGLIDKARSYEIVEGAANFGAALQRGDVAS

B1: 25 bp unmethylated duplex, gel filtration (dsDNA)
DNA 1: GGCAGACACGGAATTCCACAGACGG
DNA 2: CCGTCTGTGGAATTCCGTGTCTGCC
modifications: none
B1: the binding result was “binds”.
